# Measurements from US8461305B2, “L-fucose α1→6 specific lectin” (J-Oil Mills, Inc., priority 2008, dated 2013).
# T1: α-fetoprotein (mainly L1-type sugar chain) (Homo sapiens, UniProt P02771)
# T1 construct: derived from human umbilical cord blood serum; from tissue; host or cells: human umbilical cord blood serum
# T1 sequence (P02771 19-609): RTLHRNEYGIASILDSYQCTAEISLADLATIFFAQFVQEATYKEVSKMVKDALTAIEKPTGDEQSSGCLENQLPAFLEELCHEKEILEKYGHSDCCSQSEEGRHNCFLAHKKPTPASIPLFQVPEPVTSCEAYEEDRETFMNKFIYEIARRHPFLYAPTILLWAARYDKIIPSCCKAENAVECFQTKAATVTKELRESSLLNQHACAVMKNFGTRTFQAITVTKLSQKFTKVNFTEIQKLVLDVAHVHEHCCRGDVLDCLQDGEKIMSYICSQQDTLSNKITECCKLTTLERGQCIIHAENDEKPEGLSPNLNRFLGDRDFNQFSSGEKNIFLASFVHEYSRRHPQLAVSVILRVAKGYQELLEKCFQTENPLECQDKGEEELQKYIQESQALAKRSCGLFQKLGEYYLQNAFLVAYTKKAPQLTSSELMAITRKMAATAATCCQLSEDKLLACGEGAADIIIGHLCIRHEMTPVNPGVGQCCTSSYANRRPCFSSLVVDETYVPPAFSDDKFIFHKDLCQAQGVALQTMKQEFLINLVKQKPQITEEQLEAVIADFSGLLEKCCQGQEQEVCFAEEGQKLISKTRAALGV
# T2: α-fetoprotein-L3 (Homo sapiens, UniProt P02771)
# T2 construct: prepared from the culture supernatant of human liver cancer cells; endogenous in cells
# T2 sequence (P02771 19-609): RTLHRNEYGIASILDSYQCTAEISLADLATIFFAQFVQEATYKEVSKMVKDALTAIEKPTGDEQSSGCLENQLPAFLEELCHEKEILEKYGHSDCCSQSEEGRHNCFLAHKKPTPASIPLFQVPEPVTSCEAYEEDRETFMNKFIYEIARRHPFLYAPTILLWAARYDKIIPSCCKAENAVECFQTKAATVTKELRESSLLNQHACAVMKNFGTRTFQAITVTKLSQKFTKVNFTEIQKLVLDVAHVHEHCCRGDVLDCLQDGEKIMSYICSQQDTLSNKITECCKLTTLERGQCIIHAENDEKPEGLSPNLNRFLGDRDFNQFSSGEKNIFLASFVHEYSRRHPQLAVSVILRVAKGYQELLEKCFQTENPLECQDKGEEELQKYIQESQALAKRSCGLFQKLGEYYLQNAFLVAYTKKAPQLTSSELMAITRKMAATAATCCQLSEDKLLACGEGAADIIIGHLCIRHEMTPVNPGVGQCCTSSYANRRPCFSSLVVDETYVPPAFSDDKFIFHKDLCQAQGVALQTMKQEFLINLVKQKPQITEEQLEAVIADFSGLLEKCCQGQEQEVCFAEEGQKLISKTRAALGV
# Columns and labels:
# [1] = molecular target: T1, α-fetoprotein (mainly L1-type sugar chain); assay: detection of tumor marker sugar chain by ELISA; type: binding; details: α-fetoprotein from human umbilical cord blood serum, coated at 0.01 μg/ml
# Excerpt: (§1) α-fetoprotein (hereinafter referred to as “AFP”) is a glycoprotein included in a blood serum having an N-linked sugar chain. Substantially no AFP exists in the blood serum of a healthy adult. On the other hand, the blood serum of a patient having a benign liver disease has an increased α-fetoprotein L1-type sugar chain (AFP-L1). Furthermore, α-fetoprotein L3-type sugar chain (AFP-L3) is detected in a patient of a liver cancer. Conventionally, the difference in a sugar chain has been measured by LCA and the measurement result has been used for the diagnosis of a liver disease.
# (§2) PTL of Example 1, SRL of Example 2, AAL of Comparison Example 1, AOL of Comparison Example 2, and the LCA of Comparison Example 3 that were biotin-labeled were used to evaluate the binding property of α-fetoprotein by ELISA.
# (§3) 0.1 M carbonic acid buffer solution (pH 9.5) was used to dilute α-fetoprotein (derived from human umbilical cord blood serum, mainly L1-type sugar chain) and α-fetoprotein-L3 (prepared from the culture supernatant of human liver cancer cells) so as to achieve 0.01 μg/ml. Then, the resultant solution was added to a microtiter plate (Nunc) and was incubated at 4 degrees C. one night. After the solution was cleaned by 0.05% Tween/PBS three times, 1% BSA/PBS was added to wells and the solution was incubated at 37 degrees C. for one hour. After the solution was washed by 0.05% Tween/PBS three times, the wells were added with the biotin-labeled lectin solution appropriately diluted by 1% BSA/0.05% Tween/PBS and the solution was incubated at 37 degrees C. for one hour. After the solution was cleaned by 0.05% Tween/PBS three times, HRP labeled streptavidin solution diluted by 1% BSA/0.05% Tween/PBS was added and the solution was incubated at 37 degrees C. for 30 minutes. After the solution was cleaned by 0.05% Tween/PBS three times, TMB Peroxidase substrate system (KPL) was added and the resultant solution was incubated at a room temperature for 10 minutes while light was being blocked. The reaction was stopped by 1 M phosphoric acid. Then, a microplate reader (MPR-A4i, TOSOH CORPORATION) was used to measure the absorbance at 450 nm.
# (§4) The absorbance at 450 nm of the plate on which α-fetoprotein and α-fetoprotein-L3 were caused to react with lectin was measured. Based on this value, the reaction value ([absorbance at 450 nm of a well for which glycoprotein was solid-phased to the plate and reacted]−[absorbance at 450 nm of a well for which glycoprotein was not solid-phased to the plate and reacted]) was calculated. Next, for each lectin, the interaction was calculated. Next, the calculation result of the reaction values is shown in Table 10 and FIG. 24 to FIG. 28.
# [2] = molecular target: T2, α-fetoprotein-L3; assay: detection of tumor marker sugar chain by ELISA; type: binding; details: α-fetoprotein-L3 from culture supernatant of human liver cancer cells, coated at 0.01 μg/ml
# Excerpt: as §1, §2, §3, §4
# [3] = tested on: pig erythrocytes; assay: hemagglutinating activity test, pig erythrocytes; type: cell-based; details: for hemagglutinating activity, titer (1.0 mg/ml): lectin 1.0 mg/ml
# Excerpt: (§5) The sugar binding specificity of lectin also can be confirmed by using erythrocytes that can be specifically agglutinated by the lectin to investigate the sugar type that may inhibit the agglutination of the erythrocytes and the concentration thereof.
# (§6) PTL and SRL were subjected to hagglutinating activity test for rabbit, equine, pig, sheep, human (A, B, O), and actinase E-treated rabbit erythrocytes.
# [4] = tested on: human (A, B, O) erythrocytes; assay: hemagglutinating activity test, human (A, B, O) erythrocytes; type: cell-based; details: for hemagglutinating activity, titer (1.0 mg/ml): lectin 1.0 mg/ml
# Excerpt: as §6
# [5] = tested on: actinase E-treated rabbit erythrocytes; assay: hemagglutinating activity test, actinase E-treated rabbit erythrocytes; type: cell-based; details: for hemagglutinating activity, titer (1.0 mg/ml): lectin 1.0 mg/ml
# Excerpt: as §5, §6
# [6] = tested on: sheep erythrocytes; assay: hemagglutinating activity test, sheep erythrocytes; type: cell-based; details: for hemagglutinating activity, titer (1.0 mg/ml): lectin 1.0 mg/ml
# Excerpt: as §5, §6
# [7] = tested on: rabbit erythrocytes; assay: hemagglutinating activity test, rabbit erythrocytes; type: cell-based; details: for hemagglutinating activity, titer (1.0 mg/ml): lectin 1.0 mg/ml
# Excerpt: as §5, §6
# [8] = tested on: equine erythrocytes; assay: hemagglutinating activity test, equine erythrocytes; type: cell-based
# Excerpt: as §5, §6
Molecule,"reaction value (absorbance at 450 nm, blank-subtracted) by ELISA [1]","reaction value (absorbance at 450 nm, blank-subtracted) by ELISA [2]",Minimum hemagglutinating concentration [3],"hemagglutinating activity, titer (1.0 mg/ml) [3]",Minimum hemagglutinating concentration ([4]; Human A erythrocytes),"hemagglutinating activity, titer (1.0 mg/ml) ([4]; Human A erythrocytes)",Minimum hemagglutinating concentration ([4]; Human B erythrocytes),"hemagglutinating activity, titer (1.0 mg/ml) ([4]; Human B erythrocytes)",Minimum hemagglutinating concentration ([4]; Human O erythrocytes),"hemagglutinating activity, titer (1.0 mg/ml) ([4]; Human O erythrocytes)",Minimum hemagglutinating concentration [5],"hemagglutinating activity, titer (1.0 mg/ml) [5]",Minimum hemagglutinating concentration [6],"hemagglutinating activity, titer (1.0 mg/ml) [6]",Minimum hemagglutinating concentration [7],"hemagglutinating activity, titer (1.0 mg/ml) [7]",Minimum hemagglutinating concentration [8],"hemagglutinating activity, titer (1.0 mg/ml) ([8]; lectin 1.0 mg/ml)"
"Aspergillus oryzae lectin [AOL, reference compound]",0.011,0.898,–,–,–,–,–,–,–,–,–,–,–,–,–,–,–,–
"Pholiota terrestris lectin [PTL, novel L-fucose α1→6 specific lectin purified from the mushroom Pholiota terrestris]",0.039,1.548,20.8 µg/mL,16 titer,>333 µg/mL,<1 titer,>333 µg/mL,<1 titer,>333 µg/mL,<1 titer,0.13 µg/mL,2560 titer,>333 µg/mL,<1 titer,5.21 µg/mL,64 titer,–,–
"Stropharia rugosoannulata lectin [SRL, novel L-fucose α1→6 specific lectin purified from the mushroom Stropharia rugosoannulata]",0.031,1.625,10.4 µg/mL,32 titer,>333 µg/mL,<1 titer,>333 µg/mL,<1 titer,>333 µg/mL,<1 titer,0.651 µg/mL,512 titer,>333 µg/mL,<1 titer,5.21 µg/mL,64 titer,2.61 µg/mL,128 titer
Aleuria aurantia lectin (protein) PTEFLYTSKIAAISWAATGGRQQRVYFQDLNGKIREAQRGGDNPWTGGSSQNVIGEAKLFSPLAAVTWKSAQGIQIRVYCVNKDNILSEFVYDGSKWITGQLGSVGVKVGSNSKLAALQWGGSESAPPNIRVYYQKSNGSGSSIHEYVWSGKWTAGASFGSTVPGTGIGATAIGPGRLRIYYQATDNKIREHCWDSNSWYVGGFSASASAGVSIAAISWGSTPNIRVYWQKGREELYEAAYGGSWNTPGQIKDASRPTPSLPDTFIAANSSGNIDISVFFQASGVSLQQWQWISGKGWSIGAVVPTGTPAGW,−0.049,0.795,–,–,–,–,–,–,–,–,–,–,–,–,–,–,–,–
Lens culinaris agglutinin (protein) chain 1: TETTSFSITKFSPDQKNLIFQGDGYTTKGKLTLTKAVKSTVGRALYSTPIHIWDRDTGNVANFVTSFTFVIDAPSSYNVADEFTFFIAPVDTKPQTGGGYLGVFNSKEYDKTSQTVAVEFDTFYNAAWDPSNKERHIGIDVNSIKSVNTKSWNLQNGERANVVIAFNAATNVLTVTLTYP chain 2: VTSYTLNEVVPLKDVVPEWVRIGFSATTGAEFAAHEVHSWSFHSELGGTSSS,0.010,0.455,–,–,–,–,–,–,–,–,–,–,–,–,–,–,–,–
